Measurements published in US20250043019A1 (Janssen / Centocor, published 2025).

T1: human CD20 on the cell surface (human, UniProt P11836 1-297)
T1 sequence (looked up): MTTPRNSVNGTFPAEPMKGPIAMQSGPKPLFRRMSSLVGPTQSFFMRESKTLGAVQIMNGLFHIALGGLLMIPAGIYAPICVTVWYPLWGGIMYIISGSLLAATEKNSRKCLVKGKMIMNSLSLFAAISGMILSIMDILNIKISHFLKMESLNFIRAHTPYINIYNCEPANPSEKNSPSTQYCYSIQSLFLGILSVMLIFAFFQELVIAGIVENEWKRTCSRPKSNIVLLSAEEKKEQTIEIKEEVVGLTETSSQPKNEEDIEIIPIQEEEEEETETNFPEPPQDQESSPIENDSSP

B1: mosunetuzumab (bispecific antibody)
chain 1: not shown
chain 2: DIQMTQSPSSLSASVGDRVTITCRASSSVSYMHWYQQKPGKAPKPLIYAPSNLASGVPSRFSGSGSGTDFTLTISSLQPEDFATYYCQQWSFNPPTFGQGTKVEIKRTVAAPSVFIFPPSDEQLKSGTASVVCLLNNFYPREAKVQWKVDNALQSGNSQESVTEQDSKDSTYSLSSTLTLSKADYEKHKVYACEVTHQGLSSPVTKSFNRGEC
chain 3: EVQLVQSGAEVKKPGASVKVSCKASGYTFTNYYIHWVRQAPGQGLEWIGWIYPGDGNTKYNEKFKGRATLTADTSTSTAYLELSSLRSEDTAVYYCARDSYSNYYFDYWGQGTLVTVSSASTKGPSVFPLAPSSKSTSGGTAALGCLVKDYFPEPVTVSWNSGALTSGVHTFPAVLQSSGLYSLSSVVTVPSSSLGTQTYICNVNHKPSNTKVDKKVEPKSCDKTHTCPPCPAPELLGGPSVFLFPPKPKDTLMISRTPEVTCVVVDVSHEDPEVKFNWYVDGVEVHNAKTKPREEQYGSTYRVVSVLTVLHQDWLNGKEYKCKVSNKALPAPIEKTISKAKGQPREPQVYTLPPSREEMTKNQVSLSCAVKGFYPSDIAVEWESNGQPENNYKTTPPVLDSDGSFFLVSKLTVDKSRWQQGNVFSCSVMHEALHNHYTQKSLSLSPGK
chain 4: not shown
B2: 79C3B601 CD79bxCD3 bispecific antibody (bispecific antibody, human IgG1, kappa, L234A L235A)
heavy: QVQLQESGPGLVKPSETLSLTCSVSGASISSFYWSWIRQPADEGLEWIGRISPSGKTNYIPSLKSRIIMSLDASKNQFSLRLNSVTAADTAMYYCARGEYSGTYSYSFDVWGQGTMVTVSSASTKGPSVFPLAPSSKSTSGGTAALGCLVKDYFPEPVTVSWNSGALTSGVHTFPAVLQSSGLYSLSSVVTVPSSSLGTQTYICNVNHKPSNTKVDKKVEPKSCDKTHTCPPCPAPEAAGGPSVFLFPPKPKDTLMISRTPEVTCVVVSVSHEDPEVKFNWYVDGVEVHNAKTKPREEQYNSTYRVVSVLTVLHQDWLNGKEYKCKVSNKALPAPIEKTISKAKGQPREPQVYTLPPSREEMTKNQVSLSCAVKGFYPSDIAVEWESNGQPENNYKTTPPVLDSDGSFFLVSKLTVDKSRWQQGNVFSCSVMHEALHNRFTQKSLSLSPGK
light: DIVMTQSPLSLSVTPGEPASISCRSSESLLDSEDGNTYLDWFLQKPGQSPQLLIYTLSYRASGVPDRFSGSGSDTDFTLHISSLEAEDVGLYYCMQRMEFPLTFGQGTKVEIKRTVAAPSVFIFPPSDEQLKSGTASVVCLLNNFYPREAKVQWKVDNALQSGNSQESVTEQDSKDSTYSLSSTLTLSKADYEKHKVYACEVTHQGLSSPVTKSFNRGEC
chain: EIVLTQSPATLSASPGERVTLSCSASSSVSYMNWYQQKPGQAPRRWIYDSSKLASGVPARFSGSGSGRDYTLTISSLEPEDFAVYYCQQWSRNPPTFGGGTKVEIKGGSEGKSSGSGSESKSTGGSQVQLVQSGAEVKKPGSSVKVSCKASGYTFTRSTMHWVKQAPGQGLEWIGYINPSSAYTNYNQKFQGRVTLTADKSTSTAYMELSSLRSEDTAVYYCASPQVHYDYAGFPYWGQGTLVTVSSEPKSSDKTHTCPPCPAPEAAGGPSVFLFPPKPKDTLMISRTPEVTCVVVSVSHEDPEVKFNWYVDGVEVHNAKTKPREEQYNSTYRVVSVLTVLHQDWLNGKEYKCKVSNKALPAPIEKTISKAKGQPREPQVYTLPPSREEMTKNQVSLWCLVKGFYPSDIAVEWESNGQPENNYKTTPPVLDSDGSFFLYSKLTVDKSRWQQGNVFSCSVMHEALHNHYTQKSLSLSPGK
notes: IgG1, knobs-in-holes, Fc-gamma-receptor-silencing mutations; HC1/LC = CD79b Fab arm, third chain = CD3 scFv-Fc arm; also called 79C3B601 bsAb; CD9B374 x CD3B2030-N106A

Key:
[1] = target: T1, human CD20 on the cell surface; experiment: cell-based or functional assay
[2] = target: human CD3 on primary T cells (human, UniProt P07766 23-207); experiment: cell-based or functional assay
Chain of human CD3 on primary T cells (P07766 23-207): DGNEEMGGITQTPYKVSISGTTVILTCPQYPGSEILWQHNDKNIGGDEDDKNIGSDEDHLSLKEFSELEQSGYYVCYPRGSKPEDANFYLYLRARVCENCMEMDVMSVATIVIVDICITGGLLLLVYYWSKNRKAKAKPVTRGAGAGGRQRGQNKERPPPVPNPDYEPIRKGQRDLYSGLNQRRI

[3] = target: T2, cynomolgus monkey CD79b antigen (cynomolgus monkey); experiment: SPR Biacore 8k, cyno CD79b injected up to 3000 nM
T2 construct: also called cyno CD79b; CD9W1.001
Experimental: General Protocol for SPR Affinity Assessment: Affinity assessment of the bispecific trispecific constructs against human CD79b were measure using recombinantly expressed extracellular domain of CD79b short and long isoforms (CD9W7.001 and CD9W8.001, respectively) by Surface Plasmon Resonance (SPR) using a Biacore 8k SPR system (Biacore) at 25° C. in HBSP+ buffer. Cross-reactivity of the same antibody panel was also assessed against cyno and mouse antigens (CD9W1.001 and CD9W105.001, respectively). Briefly, a C1 sensor chip was immobilized with anti-human Fc (target immobilization levels of >400 RU) using vendor recommended amino coupling protocol. […] The association and dissociation phases were measured for 2 or 3 minutes and 30 minutes, respectively.
The raw binding sensorgrams were processed using Biacore Insight software (Biacore) by double-referencing and the processed sensorgrams were analyzed for cross-reactivity and fitted to a 1:1 Langmuir model to obtain on-rates, off-rates and affinities.

| Binder | EC50, autologous B-cell depletion, donor D198013 [1] [nM] | EC50, autologous B-cell depletion, donor D221837 [1] [nM] | EC50, autologous B-cell depletion, donor D329465 [1] [nM] | EC50 of CD8 T-cell activation, CARNAVAL, E:T 1:1, 48 hours [2] [nM] | EC50 of CD8 T-cell activation, CARNAVAL, E:T 1:1, 72 hours [2] [nM] | EC50 of CD8 T-cell activation, CARNAVAL, E:T 5:1, 48 hours [2] [nM] | EC50 of CD8 T-cell activation, CARNAVAL, E:T 5:1, 72 hours [2] [nM] | EC50 of CD8 T-cell activation, HT, E:T 5:1, 48 hours [2] [nM] | EC50 of CD8 T-cell activation, HT, E:T 5:1, 72 hours [2] [nM] | EC50 of CD8 T-cell activation, JEKO-1, E:T 1:1, 48 hours [2] [nM] | EC50 of CD8 T-cell activation, JEKO-1, E:T 1:1, 72 hours [2] [nM] | EC50 of CD8 T-cell activation, JEKO-1, E:T 5:1, 48 hours [2] [nM] | EC50 of CD8 T-cell activation, JEKO-1, E:T 5:1, 72 hours [2] [nM] | EC50 of CD8 T-cell activation, OCI-Ly10, E:T 1:1, 48 hours [2] [nM] | EC50 of CD8 T-cell activation, OCI-Ly10, E:T 1:1, 72 hours [2] [nM] | EC50 of CD8 T-cell activation, OCI-Ly10, E:T 5:1, 48 hours [2] [nM] | EC50 of CD8 T-cell activation, OCI-Ly10, E:T 5:1, 72 hours [2] [nM] | EC50 of CD8 T-cell activation, WILL-2, E:T 5:1, 48 hours [2] [nM] | EC50 of CD8 T-cell activation, WILL-2, E:T 5:1, 72 hours [2] [nM] | Kd [3] [nM] |
| --- | --- | --- | --- | --- | --- | --- | --- | --- | --- | --- | --- | --- | --- | --- | --- | --- | --- | --- | --- | --- |
| B1 | 0.2 | 0.5 | 0.2 | 0.053 | 0.013 | 0.038 | 0.021 | 0.148 | 0.078 | 0.022 | 0.021 | 0.043 | 0.019 | 0.045 | 0.035 | 0.256 | 0.12 | 1.24 | 1.27 |  |
| B2 |  |  |  |  |  |  |  |  |  |  |  |  |  |  |  |  |  |  |  | > 3000 |
